Laboratory results reported in paper PMC3887093.

B1: DBP-RII with C-terminally fused GFP, wild type, on the surface of HEK293T cells [Plasmodium vivax] / Duffy antigen/receptor for chemokines (DARC) on human red blood cells [human (endogenous in RBCs)] (parent)
chain 1: ASNTVMKNCNYKRKRRERDWDCNTKKDVCIPDRRYQLCMKELTNLVNNTDTNFHRDITFRKLYLKRKLIYDAAVEGDLLLKLNNYRYNKDFCKDIRWSLGDFGDIIMGTDMEGIGYSKVVENNLRSIFGTDEKAQQRRKQWWNESKAQIWTAMMYSVKKRLKGNFIWICKLNVAVNIEPQIYRWIREWGRDYVSELPTEVQKLKEKCDGKINYTDKKVCKVPPCQNACKSYDQWITRKKNQWDVLSNKFISVKNAEKVQTAGIVTPYDILKQELDEFNEVAFENEINKRDGAYIELCVCSVEEAKKNTQEVVTNVDN
chain 2: MGNCLHRAELSPSTENSSQLDFEDVWNSSYGVNDSFPDGDYGANLEAAAPCHSCNLLDDSALPFFILTSVLGILASSTVLFMLFRPLFRWQLCPGWPVLAQLAVGSALFSIVVPVLAPGLGSTRSSALCSLGYCVWYGSAFAQALLLGCHASLGHRLGAGQVPGLTLGLTVGIWGVAALLTLPVTLASGASGGLCTLIYSTELKALQATHTVACLAIFVLLPLGLFGAKGLKKALGMGPGPWMNILWAWFIFWWPHGVVLGLDFLVRSKLLLLSTCLAQQALDLLLNLAEALAILHCVATPLLLALFCHQATRTLLPSLPLPEGWSSHLDTLGSKS

Variants of: B1
Test: red blood cell rosetting (RBC binding) assay with DBP-RII-GFP expressed on HEK293 cells
Conditions: parent: 100, read off a plot

| Variant | percent of parent |
| --- | --- |
| chain 1 A73L | 0 % Binding |
| chain 1 I57R | 72 % Binding |
| chain 1 T58W | 55 % Binding |
| chain 1 D56W | 59 % Binding |
| chain 1 D56R | 42 % Binding |
| chain 1 Y155L | 0 % Binding |
| chain 1 Y155A | 0 % Binding |
| chain 1 Q148D | 18 % Binding |
| chain 1 Q148Y | 66 % Binding |
